In US20240084032A1 (BLUEFIN BIOMEDICINE, published 2024):
Numbering of substitutions follows the chain as printed. Each block holds one binder with its values, some of them ahead of it.

What was measured:
Cynomolgus monkey CDCP1 = biological target: T1, Cynomolgus monkey CDCP1 (Macaca fascicularis, UniProt A0A2K5VLA8); experiment: Octet BLI, Ab on Protein A sensor, recombinant CDCP1 analyte
T1 construct: recombinant ectodomain from CHO cells; construct not given; also called cyCDCP1; BBP468

[1] = biological target: T2, recombinant human CDCP1 ECD (AA30-667) with C-terminal His tag (human, UniProt Q9H5V8 30-667); experiment: as above
T2 construct: range 30-667; also called FL-ECD; recombinant FL-ECD
Description: Affinity: The affinity of antibodies to various recombinant CDCP1 molecules was determined on an Octet Red (Pall, ForteBio) instrument. After loading reagents into a 96-well plate, the Octet Red with Protein A-conjugated biosensors was programmed as follows: 30 seconds for baseline #1; 120 seconds to immobilize the antibody; 30 seconds for baseline #2; 300 seconds for association of antibody to recombinant CDCP1; and 300-600 seconds for dissociation of recombinant CDCP1 from the antibody.

[2] = biological target: human CDCP1 endogenously expressed on cancer cell lines (human, UniProt Q9H5V8 30-836); experiment: cell-based or functional assay
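Throughout, for Kd: antibody captured for 120 s on the sensor, followed by 300 s association with CDCP1 and a 300–600 s dissociation phase.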

B2: 18C6 (antibody, human IgG1, V domains shown)
VH: QVQLQESGPGQVKPSETLSLTCTVSGGSISSSFWSWIRQPPGKGLEWIGYIYYSESTNYNPSLKRRVTLSVDTSKNQFSLKLTSVTTADTAVYYCARNIGVAGLFDYWGQGTLVTVSS
VL: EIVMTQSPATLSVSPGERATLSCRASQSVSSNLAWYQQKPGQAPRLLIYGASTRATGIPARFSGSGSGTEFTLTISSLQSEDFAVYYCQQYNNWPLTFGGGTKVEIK
notes: also called 18C06; human antibody 18C6
Kd (Cynomolgus monkey CDCP1): 0.19 µM
Kd [1]: 0.025 µM

B3: 01E2 (antibody, V domains shown)
VH: QVQLVESGGGVVQPGRSLRLSCAASGFTFSSYGMHWVRQAPGKGLEWVAVIWYAGSNKYYADSVKGRFTISRDNSKNTLYLQMNSLRAEDTAVYYCAGWDFDYWGQGTLVTVSS
VL: EIVLTQSPATLSLSPGERATLSCRASQTVPNYLAWYQQKPGQAPRLLIYDASNRATDIPARFSGSGSGTDFTLTISSLEPEDFAVYYCQQRANWPPITFGQGTRLEIK
Kd (Cynomolgus monkey CDCP1): > 0.5 µM
Kd [1]: 0.02 µM

B7: 27H10 (antibody, human IgG1, V domains shown)
VH: QVQLVQSGAEVKKPGSSVKVSCKASGGTFSSYAMSWVRQAPGQGLEWMGGIIPILGTTNYAQKFQGRVTITADKSTSTAYMELSSLRSEDTAVYYCAREGLYAFDIWGQGTMVTVSS
VL: DIQMTQSPSSLSASVGDRVTITCRASQSISSYLNWYQQKPGKAPKFLIYVASSLQSGVPSRFSGRGSGTDFTLTISSLQPEDFATYYCQQSYSTPWTFGQGTKVEIK
notes: also called human antibody 27H10
Kd (Cynomolgus monkey CDCP1): 0.045 µM
Kd [1]: 0.045 µM

B8: 42C5 (antibody, V domains shown)
VH: EVQLVESGGGLVQPGGSLRLSCAASGFTFSRYWMNWVRQAPGKGLEWVANIKQDGSEKDYVDSVKGRFTISRDNAKNSLFLQMSSLRAEDTAVYYCARVMYSSGWSFDYWGQGTLVTVSS
VL: DIVMTQSPLSLPVTPGEPASISCRSSRSLLHSSGYNFLDWFLQKPGQSPQLLIFLGSDRASGVPDRFSGSGSGTDFTLKISRVETEDVGVYYCMQALQTPITFGQGTRLEIK
Kd (Cynomolgus monkey CDCP1): 0.012 µM
Kd [1]: 0.002 µM

B9: 47G7 (antibody, human IgG1, V domains shown)
VH: B8 VH with R31S, N35S, F80Y, S84N, A88V, V99E, M100G, Y101G, S106T
VL: B8 VL with R27Q, Y35H, F41Y, F54Y, D58N, T85A, I101P, R108K
notes: also called human antibody 47G7
Kd (Cynomolgus monkey CDCP1): 0.5 µM
Kd [1]: 0.035 µM

B10: 38E11-vcMMAE (other)
VH: EVQLLESGGGLVQPGGSLRLSCAASGFTFSNYAMNWVRQAPGKGLEWVSAISGGGGSTYYADSVKGRFTISRDNSKNTLYLQMNSLRAEDTAVYYCAKESITMVRGVMDYYGMDVWGQGTTVTVSS
VL: DIQLTQSPSFLSASVGDRVTITCRASQGISSYLAWYQQKPGKAPKLLIYAASTLQGGVPSRFSGSGSGTEFTLTISSLQPEDFATYYCQHLNRFPRTFGQGTKVEIK
modifications: maleimidocaproyl-valine-citrulline-p-aminobenzoyloxycarbonyl-MMAE on hinge region cysteine thiols, positions not given; DAR 3.9
EC50 of killing, Cal-12T NSCLC cells, CellTiter Glo, 96 hrs [2]: > 1 mg/L
EC50 of killing, DU145 prostate cancer cells, CellTiter Glo, 96 hrs [2]: 1 mg/L
EC50 of killing, H1650 NSCLC cells, CellTiter Glo, 96 hrs [2]: > 1 mg/L
EC50 of killing, HCC15 NSCLC cells, CellTiter Glo, 96 hrs [2]: > 1 mg/L
EC50 of killing, HCC44 NSCLC cells, CellTiter Glo, 96 hrs [2]: > 1 mg/L
EC50 of killing, HCC78 NSCLC cells, CellTiter Glo, 96 hrs [2]: > 1 mg/L
EC50 of killing, HCC827 NSCLC cells, CellTiter Glo, 96 hrs [2]: > 1 mg/L
EC50 of killing, PC3 prostate cancer cells, CellTiter Glo, 96 hrs [2]: 0.1 mg/L

B11: 50D6 (antibody, V domains shown)
VH: EVQVLESGGGLVQPGGSLRLSCAASGFTFSNYAMNWVRQAPGKGLEWVSAISGGGGSTYYADSVKGRATISRDNSENTLYLQMNSLRAEDTAVYYCAKTSSGWYDSYYDYYGLDVWGQGTTVTVSS
VL: B10 VL with S31N, A43V, A51V, G56S, H90Q, R93S, F94Y, R96F, Q100G, V104L
Kd (Cynomolgus monkey CDCP1): < 0.001 µM
Kd [1]: < 0.001 µM

B12: 3B11 (antibody, human IgG1, V domains shown)
VH: QVQLQQWDAGLLKPSETLSLTCAVYGGSFSSYYWSWIRQPPGKGLEWIGEINHSGSTSYNPSLKSRVTISIDTSKNQFSLKLNSMTAADTAVYFCAASPYFDYWGQGTLVTVSS
VL: B10 VL with G56S, H90Q, R93S, F94Y
notes: also called 03B11; 3B111
Kd (Cynomolgus monkey CDCP1): > 0.5 µM
Kd [1]: 0.06 µM

B13: 38E11-PBD (other)
VH: B10 VH
VL: B10 VL
modifications: MA-PEG8-VA-PAB-SG3199 (PBD) on hinge region cysteine thiols, positions not given; DAR 2.3
EC50 of killing, Cal-12T NSCLC cells, CellTiter Glo, 96 hrs [2]: > 1 mg/L
EC50 of killing, DU145 prostate cancer cells, CellTiter Glo, 96 hrs [2]: 0.1 mg/L
EC50 of killing, H460 NSCLC cells, CellTiter Glo, 96 hrs [2]: ~0.1 mg/L
EC50 of killing, H1299 NSCLC cells, CellTiter Glo, 96 hrs [2]: > 1 mg/L
EC50 of killing, H1650 NSCLC cells, CellTiter Glo, 96 hrs [2]: ~1 mg/L
EC50 of killing, HCC44 NSCLC cells, CellTiter Glo, 96 hrs [2]: ~1 mg/L
EC50 of killing, HCC827 NSCLC cells, CellTiter Glo, 96 hrs [2]: > 1 mg/L
EC50 of killing, LNCAP prostate cancer cells, CellTiter Glo, 96 hrs [2]: 0.01 mg/L
EC50 of killing, PC3 prostate cancer cells, CellTiter Glo, 96 hrs [2]: 1 mg/L

B14: 38E11 (antibody, human IgG1, V domains shown)
VH: B10 VH
VL: B10 VL
notes: also called human antibody 38E11
Kd (Cynomolgus monkey CDCP1): 0.004 µM
Kd [1]: 0.002 µM

B15: 12C2 (antibody, V domains shown)
VH: QEQLVESGGGVVQPGRSLRLSCVTSGFTFSSYGMHWVRQAPGKGLEWVAVIWYDGTNKYYADTVKGRFTISRDNSKNTLYLQMNSLRAEDTGVYYCAREGCDTISCPYYYYGMDVWGQGTTITVSS
VL: DILMTQSPSSLSASVGDRVTITCRASQGINYYLAWYQQKPGKVPKLLIYTASTLQSGVPSRFSGSGSGTDFTLTISSLQPEDVATYFCQKYNSAPFTFGPGTKLEIK
Kd (Cynomolgus monkey CDCP1): 0.008 µM
Kd [1]: 0.001 µM

B16: 03C05 (antibody, V domains shown)
VH: EVQVLESGGGLVQPGGSLRLSCAASGFTFSSYVMSWVRQAPGKGLEWVSGISGSGGSTHYADSVKGRFTISRDNSKNTLYLQMNSLRAEDTALYYCAQQWPQGYWGQGTLVTVSS
VL: B15 VL with L3Q, G28D, N30S, Y31I, Y36F, L46V, T50A, S67T
notes: also called 3C5
Kd (Cynomolgus monkey CDCP1): 0.08 µM
Kd [1]: 0.02 µM

B18: 04G06 (antibody, V domains shown)
VH: QVQLVESGGGVVQPGRSLRLSCVVSGFTLSSYGMHWVRQAPGKGLEWVAVIWYDGSDKYYADSVKGRFTISRDNSKNTLYLQMNSLRAEDTAVYYCARDDWGFDYWGQGTLVTVSS
VL: DIQLTQSPSFLSASVGDRVTITCRASQDISNYLAWYQQKPGKAPKLLISASTLQSGVPSRFSGSGSGTEFILTISSLQPEDFATYYCQHLNSYPFGQGTKVEIK
notes: also called 4G6
Kd (Cynomolgus monkey CDCP1): 0.027 µM
Kd [1]: 0.004 µM

The remaining binders from weak to strong by Kd (Cynomolgus monkey CDCP1), led by results:

Kd (Cynomolgus monkey CDCP1): 0.083 µM
Kd [1]: 0.008 µM
B5: 02F3 (antibody, V domains shown)
VH: QVQLVESGGGVVQPGRSLRLSCAASGFSFSDYGIHWVRQAPGKGLEWVAVIWYDGSNKYYADSVKGRFTISRDNSKNTLYLQVNSLIAEDTAVYYCARDRGYSSGWYVDYYYYGMDVWGQGTTVTVSS
VL: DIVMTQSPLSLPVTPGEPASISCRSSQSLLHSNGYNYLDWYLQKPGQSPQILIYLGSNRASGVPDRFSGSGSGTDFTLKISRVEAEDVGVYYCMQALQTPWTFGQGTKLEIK

Kd (Cynomolgus monkey CDCP1): 0.075 µM
Kd [1]: 0.017 µM
B1: 03B05 (antibody, V domains shown)
VH: QVQLVESGGGVVQPGRSLRLSCAASGFTFSSYGMHWVRQAPGKGLEWVAIIWYDGSNKYYADSVKGRFTISRDNSKNTLYLQMNSLRAEDTAVYYCAKDPSYSSGYYLFDFWGQGTLVTVSS
VL: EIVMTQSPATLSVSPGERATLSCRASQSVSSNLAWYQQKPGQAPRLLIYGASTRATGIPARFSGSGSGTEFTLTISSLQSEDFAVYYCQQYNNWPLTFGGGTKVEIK
notes: also called 3B5

Kd (Cynomolgus monkey CDCP1): 0.018 µM
Kd [1]: 0.007 µM
B6: 05A8 (antibody, V domains shown)
VH: EVQLLESGGGLVQPGGSLRLSCAASGFTFSNYAMSWVRQAPGKGLEWVSAISGRGGSTYYADSVKGRFTISRDNSKNTLYLQMNSLRAEDTAVYYCAKDIVVVPAAKGYVMDAWGQGASVTVSS
VL: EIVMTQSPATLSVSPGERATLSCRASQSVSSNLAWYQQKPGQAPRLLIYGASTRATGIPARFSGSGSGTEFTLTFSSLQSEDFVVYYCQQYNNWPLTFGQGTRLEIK

Kd (Cynomolgus monkey CDCP1): 0.013 µM
Kd [1]: 0.006 µM
B4: 41A9 (antibody, human IgG1, V domains shown)
VH: QVQLQQWGAGLLKPSETLSLTCAVYGGSFSDYYWSWIRQPPGKGLEWIGEINHSGSTNYNPSLKSRVTISVDTSKNQFSLKLSSVTAADTAVYYCARDYDVLTGHFYYYYGMDVWGQGTTVTVSS
VL: EIVLTQSPATLSLSPGERATLSCRASQSVRRYLAWYQQKPGQAPRLLIYDASNRATGIPARFSGSGSGTDFTLTISSLEPEDFAVYYCQQRNNWPLTFGGGTKLEIK
notes: also called 41A09; human antibody 41A9

Kd (Cynomolgus monkey CDCP1): 0.005 µM
Kd [1]: < 0.001 µM
B17: 14H4 (antibody, V domains shown)
VH: EVQLLESGGDLVQPGGSLRLSCAASGFTFNSYAMSWVRQAPGKGLEWVSVLSGSGGDIHYADSVKGRFTVSRDNSKNMLYLQMNSLRAEDTAVYFCAQQWPQGYWGQGTLVTVSS
VL: B15 VL with L3Q, N30S, Y31I, Y36F, T50A, F87Y, L104V

Kd (Cynomolgus monkey CDCP1): 0.001 µM
Kd [1]: < 0.001 µM
B19: 10E2 (antibody, V domains shown)
VH: QVQLVESGGGVVQPGRSLRLSCAASGFTFSSYGMHWVRQAPGKGLEWVAVVWYDGTIKYYADSVKGRFTISRDNPKNTLYLQMNSLRAEDTAVYYCASQYSSGWHTDFFDVWGQGTMVTVSS
VL: DIQMTQSPSTLSASVGDRVTITCRASQSISTWLAWYQQKPGKAPKFLIYKASSLESGVPSRFSGSGSGTEFTLTISSLQPDDFATYYCQQYSGYSLTFGGGTKVEIK
notes: also called human antibody 10E2
